From article PMC3821638, “Molecular Cloning and Characterization of the Calcineurin Subunit A from Plutella xylostella” (International Journal of Molecular Sciences, 2013)

Test system: T1, O=[N+]([O-])c1ccc(OP(=O)(O)O)cc1
T1 construct: catalytic (phosphatase) domain CNA1–341 (PxCNα), His-tagged, expressed in E. coli
Assay: Michaelis-Menten kinetics of purified rPxCNα (Km)
Format: biochemical, Plutella xylostella
Conditions: Mn2+ ([…] MnCl2 in assay buffer)

Calcineurin subunit A (PxCNA), catalytic domain PxCNα (Plutella xylostella), sequence (chain, as listed by the source): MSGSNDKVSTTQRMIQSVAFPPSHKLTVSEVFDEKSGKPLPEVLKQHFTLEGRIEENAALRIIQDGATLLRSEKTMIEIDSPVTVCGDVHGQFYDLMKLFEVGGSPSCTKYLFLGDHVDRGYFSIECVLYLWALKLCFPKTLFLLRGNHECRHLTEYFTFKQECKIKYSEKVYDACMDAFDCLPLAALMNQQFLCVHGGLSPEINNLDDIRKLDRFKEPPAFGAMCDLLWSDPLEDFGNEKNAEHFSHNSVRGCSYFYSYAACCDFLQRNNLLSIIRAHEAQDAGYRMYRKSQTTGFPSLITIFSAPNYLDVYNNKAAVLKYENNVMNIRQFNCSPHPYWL

Calcineurin subunit A (PxCNA), catalytic domain PxCNα (Plutella xylostella)
Km: 4.6 mM
